Source: patent US20180155451A1 (published 2018)

T1: FcγRIIa R (human, UniProt P12318 34-217)
T1 construct: extracellular domain; also called FcgRIIa R; FcγRIIa type R
T1 sequence (looked up): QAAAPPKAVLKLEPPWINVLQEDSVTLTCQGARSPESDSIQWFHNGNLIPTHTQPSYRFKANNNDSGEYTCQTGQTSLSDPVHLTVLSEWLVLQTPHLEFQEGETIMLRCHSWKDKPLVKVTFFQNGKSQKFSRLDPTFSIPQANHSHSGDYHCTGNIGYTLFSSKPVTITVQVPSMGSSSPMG

T2: FcγRIIb (human, UniProt P31994 43-217)
T2 construct: extracellular domain; also called FcgRIIb
T2 sequence (looked up): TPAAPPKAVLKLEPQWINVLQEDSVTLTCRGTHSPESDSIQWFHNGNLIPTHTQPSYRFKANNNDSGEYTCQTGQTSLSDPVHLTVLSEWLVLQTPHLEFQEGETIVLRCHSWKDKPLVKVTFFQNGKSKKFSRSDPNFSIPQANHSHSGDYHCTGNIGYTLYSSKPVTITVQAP

B1: GpH7-A5/GpH7-B3 variant N325_19Q/GpL16-k0 (antibody, human IgG1, kappa)
heavy 1: not shown
heavy 2: not shown
light: DIVMTQSPLSLPVTPGEPASISCQASESLVHSNRNTYLHWYLQKPGQSPQLLIYKVSNRFSGVPDRFSGSGSGTDFTLKISRVEAEDVGVYYCSQNTHVPPTFGQGTKVEIERTVAAPSVFIFPPSDEQLKSGTASVVCLLNNFYPREAKVQWKVDNALQSGNSQESVTEQDSKDSTYSLSSTLTLSKADYEKHKVYACEVTHQGLSSPVTKSFNRGEC
notes: He Ab; IgG1; mutation in one H chain only
B2: GpH7-A5/GpH7-B3 variant S298_12R/GpL16-k0 (antibody, human IgG1, kappa)
heavy 1: not shown
heavy 2: not shown
light: B1 light
notes: as for B1
B3: GpH7-A5/GpH7-B3 variant S298_16H/GpL16-k0 (antibody, human IgG1, kappa)
heavy 1: not shown
heavy 2: not shown
light: B1 light
notes: as for B1
B4: GpH7-A5/GpH7-B3 variant S298_10E/GpL16-k0 (antibody, human IgG1, kappa)
heavy 1: not shown
heavy 2: not shown
light: B1 light
notes: as for B1
B5: GpH7-A5/GpH7-B3 variant P329_11K/GpL16-k0 (antibody, human IgG1, kappa)
heavy 1: not shown
heavy 2: not shown
light: B1 light
notes: He Ab; IgG1; mutation in one H chain only; also called GpH7-A5/GpH7-B13/GpL16-k0
B6: GpH7-A5/GpH7-B3 variant S298_18N/GpL16-k0 (antibody, human IgG1, kappa)
heavy 1: not shown
heavy 2: not shown
light: B1 light
notes: as for B1
B7: GpH7-A5/GpH7-B3 variant S298_15Y/GpL16-k0 (antibody, human IgG1, kappa)
heavy 1: not shown
heavy 2: not shown
light: B1 light
notes: as for B1
B8: GpH7-A5/GpH7-B3 variant P329_18N/GpL16-k0 (antibody, human IgG1, kappa)
heavy 1: not shown
heavy 2: not shown
light: B1 light
notes: as for B1
B9: GpH7-A5/GpH7-B3 variant P329_13S/GpL16-k0 (antibody, human IgG1, kappa)
heavy 1: not shown
heavy 2: not shown
light: B1 light
notes: as for B1
B10: GpH7-A5/GpH7-B3 variant P329_19Q/GpL16-k0 (antibody, human IgG1, kappa)
heavy 1: not shown
heavy 2: not shown
light: B1 light
notes: as for B1
B11: GpH7-A5/GpH7-B3 variant P329_03V/GpL16-k0 (antibody, human IgG1, kappa)
heavy 1: not shown
heavy 2: not shown
light: B1 light
notes: as for B1
B12: GpH7-A5/GpH7-B3 variant P329_10E/GpL16-k0 (antibody, human IgG1, kappa)
heavy 1: not shown
heavy 2: not shown
light: B1 light
notes: He Ab; IgG1; mutation in one H chain only; also called GpH7-A5/GpH7-B15/GpL16-k0
B13: GpH7-A5/GpH7-B3 variant P329_09D/GpL16-k0 (antibody, human IgG1, kappa)
heavy 1: not shown
heavy 2: not shown
light: B1 light
notes: He Ab; IgG1; mutation in one H chain only; also called GpH7-A5/GpH7-B14/GpL16-k0
B14: GpH7-A5/GpH7-B3 variant P329_08L/GpL16-k0 (antibody, human IgG1, kappa)
heavy 1: not shown
heavy 2: not shown
light: B1 light
notes: as for B1
B15: GpH7-A5/GpH7-B3 variant S298_14T/GpL16-k0 (antibody, human IgG1, kappa)
heavy 1: not shown
heavy 2: not shown
light: B1 light
notes: as for B1
B16: GpH7-A5/GpH7-B3 variant P329_06M/GpL16-k0 (antibody, human IgG1, kappa)
heavy 1: not shown
heavy 2: not shown
light: B1 light
notes: as for B1
B17: GpH7-A5/GpH7-B3 variant P331_01G/GpL16-k0 (antibody, human IgG1, kappa)
heavy 1: not shown
heavy 2: not shown
light: B1 light
notes: as for B1
B18: GpH7-A5/GpH7-B3 variant P329_15Y/GpL16-k0 (antibody, human IgG1, kappa)
heavy 1: not shown
heavy 2: not shown
light: B1 light
notes: as for B1
B19: GpH7-A5/GpH7-B3 variant S298_19Q/GpL16-k0 (antibody, human IgG1, kappa)
heavy 1: not shown
heavy 2: not shown
light: B1 light
notes: as for B1
B20: GpH7-A5/GpH7-B3 variant P329_12R/GpL16-k0 (antibody, human IgG1, kappa)
heavy 1: not shown
heavy 2: not shown
light: B1 light
notes: He Ab; IgG1; mutation in one H chain only; also called GpH7-A5/GpH7-B12/GpL16-k0
B21: GpH7-A5/GpH7-B3 variant S298_11K/GpL16-k0 (antibody, human IgG1, kappa)
heavy 1: not shown
heavy 2: not shown
light: B1 light
notes: as for B1
B22: GpH7-A5/GpH7-B3 variant P329_07I/GpL16-k0 (antibody, human IgG1, kappa)
heavy 1: not shown
heavy 2: not shown
light: B1 light
notes: as for B1
B23: GpH7-A5/GpH7-B3 variant P329_04F/GpL16-k0 (antibody, human IgG1, kappa)
heavy 1: not shown
heavy 2: not shown
light: B1 light
notes: as for B1
B24: GpH7-A5/GpH7-B3 variant P329_16H/GpL16-k0 (antibody, human IgG1, kappa)
heavy 1: not shown
heavy 2: not shown
light: B1 light
notes: as for B1
B25: GpH7-A5/GpH7-B3 variant P329_14T/GpL16-k0 (antibody, human IgG1, kappa)
heavy 1: not shown
heavy 2: not shown
light: B1 light
notes: as for B1
B26: GpH7-A5/GpH7-B3 variant P329_02A/GpL16-k0 (antibody, human IgG1, kappa)
heavy 1: not shown
heavy 2: not shown
light: B1 light
notes: as for B1

Target: T1, FcγRIIa R
Assay: He/Con_2aR divided by He/Con_2b (FcγRIIa R over FcγRIIb); SPR (Biacore)

| Binder | IIaR/IIb (He_2aR/2b) [ratio] |
| --- | --- |
| B1 | 1.33 |
| B2 | 1.48 |
| B3 | 1.39 |
| B4 | 1.37 |
| B5 | 1.79 |
| B6 | 1.41 |
| B7 | 1.29 |
| B8 | 1.51 |
| B9 | 1.5 |
| B10 | 1.34 |
| B11 | 1.4 |
| B12 | 1.23 |
| B13 | 1.27 |
| B14 | 1.47 |
| B15 | 1.26 |
| B16 | 1.47 |
| B17 | 1.34 |
| B18 | 1.49 |
| B19 | 1.3 |
| B20 | 1.66 |
| B21 | 1.55 |
| B22 | 1.44 |
| B23 | 1.39 |
| B24 | 1.45 |
| B25 | 1.51 |
| B26 | 1.45 |

Target: T1, FcγRIIa R
Assay: SPR (Biacore), captured antibody, FcγR analyte; binding relative to GpH7-A5/GpH7-B3/GpL16-k0 = 100

| Binder | He/Con_2aR (IIaR binding) [control=100] |
| --- | --- |
| B1 | 92.1 |
| B2 | 85.3 |
| B3 | 88.5 |
| B4 | 65.1 |
| B5 | 30.2 |
| B6 | 68 |
| B7 | 79.1 |
| B8 | 61.2 |
| B9 | 61.5 |
| B10 | 41.1 |
| B11 | 53.8 |
| B12 | 64.8 |
| B13 | 67.8 |
| B14 | 42.8 |
| B15 | 98.5 |
| B16 | 42.7 |
| B17 | 61 |
| B18 | 67.9 |
| B19 | 95 |
| B20 | 29.3 |
| B21 | 95.1 |
| B22 | 49.6 |
| B23 | 44.7 |
| B24 | 56.7 |
| B25 | 57.3 |
| B26 | 58.9 |

Target: T2, FcγRIIb
Assay: as above

| Binder | He/Con_2b (IIb binding) [control=100] |
| --- | --- |
| B1 | 69.1 |
| B2 | 57.8 |
| B3 | 63.5 |
| B4 | 47.6 |
| B5 | 16.9 |
| B6 | 48.1 |
| B7 | 61.4 |
| B8 | 40.4 |
| B9 | 41 |
| B10 | 30.7 |
| B11 | 38.5 |
| B12 | 52.7 |
| B13 | 53.5 |
| B14 | 29.1 |
| B15 | 77.9 |
| B16 | 29.1 |
| B17 | 45.4 |
| B18 | 45.7 |
| B19 | 73.3 |
| B20 | 17.6 |
| B21 | 61.3 |
| B22 | 34.6 |
| B23 | 32.2 |
| B24 | 39.1 |
| B25 | 37.9 |
| B26 | 40.5 |
